Laboratory results from patent US20150174202A1, “Methods and Compositions for Modulating Beta Cell Proliferation” (The Board of Trustees of the Leland Stanford Junior …, priority 2011, published 2015).

Target: T1, Pdgfr-α (Mus musculus, UniProt P26618)
T1 construct: endogenous in cells; host or cells: primary pancreatic islets from C57BL/6 mice (3-week-old wild-type islets), cultured ex vivo
Test: Phosphorylation of Pdgfr-α in cultured mouse islets (western blot)
Assay type: cell-based
Details: 3-week-old mouse islets exposed to PDGF-AA
Protocol: Mouse pancreatic islets were purified as described in Chen et al. (2009) Genes Dev. 23, 975-985 and used immediately for assays described in the text. To study Ezh2 induction in cultured islets exposed to mitogens, freshly isolated islets from 2-3-week old, and 7-12-month old C57BL/6 mice were recovered and equilibrated overnight at 37° C., 5% CO2 in RPMI-1640 medium supplemented with 0.5% fetal bovine serum (FBS), 0.2% bovine albumin (BSA) and 2% penicillin/streptomycin. Afterwards, islets were distributed into microplates or dishes, and treated with recombinant human PDGF-AA, prolactin or insulin (Sigma), with or without addition of pharmacological inhibitors, including Sunitinib (Selleck), Vargatef (Selleck), U0126 (Sigma), LY294002 (Sigma) or U-73122 (Sigma) at the indicated concentrations. Two days later, islets were harvested for RNA or protein extraction for real-time RTPCR or western blot analyses. To detect phosphorylation of Pdgfr-α by western blot, islets were exposed to PDGF-AA (with or without indicated pharmacological inhibitors) for 90 min before islet harvesting and protein extraction. […] Immunostaining of BrdU and insulin was performed on processed islets, and β-cell proliferation rate was determined by quantifying percentage of insulin+ cells with BrdU+. […]

T1 sequence (P26618 25-1089): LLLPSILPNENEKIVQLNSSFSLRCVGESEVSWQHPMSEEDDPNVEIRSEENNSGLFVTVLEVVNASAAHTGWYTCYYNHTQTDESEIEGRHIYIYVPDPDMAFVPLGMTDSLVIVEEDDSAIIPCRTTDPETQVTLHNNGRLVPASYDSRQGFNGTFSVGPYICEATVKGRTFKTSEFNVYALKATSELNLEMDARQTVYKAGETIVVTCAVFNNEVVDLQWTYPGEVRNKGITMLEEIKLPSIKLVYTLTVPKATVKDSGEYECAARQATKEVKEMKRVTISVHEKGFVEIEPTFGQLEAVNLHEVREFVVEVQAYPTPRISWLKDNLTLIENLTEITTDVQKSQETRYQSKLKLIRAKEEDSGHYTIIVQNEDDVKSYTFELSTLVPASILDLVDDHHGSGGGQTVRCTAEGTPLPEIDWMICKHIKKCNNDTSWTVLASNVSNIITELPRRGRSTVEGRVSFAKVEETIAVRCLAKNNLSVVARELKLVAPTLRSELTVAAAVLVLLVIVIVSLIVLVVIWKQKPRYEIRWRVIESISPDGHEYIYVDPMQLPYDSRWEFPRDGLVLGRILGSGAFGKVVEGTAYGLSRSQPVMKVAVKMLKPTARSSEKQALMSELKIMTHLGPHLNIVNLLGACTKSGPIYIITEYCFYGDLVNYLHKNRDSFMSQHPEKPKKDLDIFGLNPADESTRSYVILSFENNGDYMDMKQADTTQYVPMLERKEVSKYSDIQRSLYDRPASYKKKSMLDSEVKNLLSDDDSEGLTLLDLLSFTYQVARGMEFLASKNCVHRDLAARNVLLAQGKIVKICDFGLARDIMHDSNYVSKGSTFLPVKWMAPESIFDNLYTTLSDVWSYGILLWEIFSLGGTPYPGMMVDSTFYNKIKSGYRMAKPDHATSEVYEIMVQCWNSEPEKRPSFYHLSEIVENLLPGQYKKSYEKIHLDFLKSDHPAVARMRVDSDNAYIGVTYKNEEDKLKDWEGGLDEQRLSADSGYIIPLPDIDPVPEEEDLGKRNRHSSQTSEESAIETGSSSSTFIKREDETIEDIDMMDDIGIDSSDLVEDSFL

Substance: PDGF-AA: recombinant human PDGF-AA, a homodimer of PDGF alpha polypeptides
- phospho-Pdgfr-α levels: increased
